Assay results taken from paper PMC8637566, “ERK signaling controls productive HIF‐1 binding to chromatin and cancer cell adaptation to hypoxia through HIF‐1α interaction with NPM1” (Molecular Oncology, 2021).

B1: TAT‐ETD(SE)‐FLAG peptide (peptide, UniProt Q16665 616-658, looked up)
chain: TTTATTDELKTVTKDRMEDIKILIAEPSPTHIHKETTSATSSP
notes: HIF-1α ERK targeted domain (ETD), residues 616–658, Ser641 to Glu; source: E. coli, purified

Assays:
[1] = target: NPM1 (nucleophosmin, B23) (UniProt P06748); assay: anti-FLAG IP of transduced peptide, NPM1 blot; conditions: reference: TAT-ETD-FLAG WT; sites S641,S643
GST‐NPM1 B23.1 = target: T1, GST‐NPM1 B23.1 (UniProt P06748 1-294); assay: pull-down; GST-NPM1 forms immobilised on GSH-agarose as baits, bacterially expressed and purified HIF-1α(348–826)SE or TAT-ETD-SE-FLAG peptide as prey; immunoblot with anti-HIF-1α or anti-Flag; conditions: both partners purified
T1 construct: NPM1 isoform B23.1, the most abundant form, with the C-terminal aromatic stretch; also called GST‐B23.1; B23.1 form of recombinant NPM1; source: E. coli BL21 (RIL), purified (GSH‐agarose)
T1 sequence (P06748 whole entry, canonical isoform): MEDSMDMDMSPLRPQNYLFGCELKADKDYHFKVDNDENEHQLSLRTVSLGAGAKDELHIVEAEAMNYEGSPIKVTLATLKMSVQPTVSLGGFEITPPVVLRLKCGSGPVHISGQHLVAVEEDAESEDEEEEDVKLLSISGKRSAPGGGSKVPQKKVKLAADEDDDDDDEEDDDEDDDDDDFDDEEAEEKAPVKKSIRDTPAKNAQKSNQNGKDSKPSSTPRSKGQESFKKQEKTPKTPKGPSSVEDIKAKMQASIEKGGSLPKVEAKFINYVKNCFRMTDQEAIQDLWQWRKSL

Molecule | binding against the reference [1] | binding result (GST‐NPM1 B23.1)
HIF‐1α ETD, 616-658 (from UniProt Q16665) TAT-ETD-SA-FLAG | lost | –
B1 | – | binds
